These results are taken from patent US20130273046A1 (published 2013).

As a reminder, the Kd is a measure of binding affinity in units of concentration.

The target of this test is human EDAR-Fc. Description: SPR (Biacore); Fab fragment.
human EDAR-Fc, sequence (chain, as listed by the source): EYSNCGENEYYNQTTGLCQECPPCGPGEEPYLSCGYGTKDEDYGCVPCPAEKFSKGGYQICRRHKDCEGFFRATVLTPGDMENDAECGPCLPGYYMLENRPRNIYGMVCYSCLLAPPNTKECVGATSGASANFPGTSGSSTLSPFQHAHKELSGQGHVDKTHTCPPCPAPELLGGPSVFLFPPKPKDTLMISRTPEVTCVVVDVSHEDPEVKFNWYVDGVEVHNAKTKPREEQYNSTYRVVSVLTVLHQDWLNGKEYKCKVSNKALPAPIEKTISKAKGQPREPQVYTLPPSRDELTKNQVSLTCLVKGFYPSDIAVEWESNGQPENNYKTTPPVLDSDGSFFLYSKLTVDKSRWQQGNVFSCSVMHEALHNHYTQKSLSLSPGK

B1: mAbEDAR2 (antibody, V domains shown)
VH: QVQLQQPGAELVKPGASVKLSCKASGYTFTSYWMQWVKQRPGQGIEWIGEIDPSDSYTYYNQKFKGKATLTIDKSSSTAYMQLSSLTSEDSAVYYCSRKNYYRGMDYWGQGTSVTVSS
VL: DVLMTQTPLSLPVSLGDQASISCRSSQNIVQSNGNTYLEWYLQKPGQSPKLLIYKVSNRFSGVPDRFSGSGSGTDFTLKISRVEADDLGVYYCFQVSHVPYTFGGGTKLEIKR
B1 returned a Kd of 1 nM.

B2: mAbEDAR6 (antibody, V domains shown)
VH: EVQLQQSGPELVKPGASVKMSCKASGYSFTGYNMHWVKQSHGKSLEWIGYIDPYNGATSKNQKFKGKATLTVDKSSTTAYIQLNSLTSEDSAVYYCARYYYGDYHWYFDVWGAGTTVTVSS
VL: DVVMTQTPLSLPVSLGDQASISCRSSQSLVHSNGNTYLHWYLQQPGQSPKLLIYKVSNRFSGVPDRFSGSGSGTDFTLKISRVEAEDLGVYFCSQHTHVPPTFGAGTKLELKR
As to B2, binding was put at a Kd of 1.58 nM.
